Drawing on paper PMC9841416, this text covers IC50 for 3 substances.

This data set addresses NTH-RNase E wild type (Escherichia coli (K12, P21513-1 in alignment)) (UniProt P21513). The data set is described as follows: competition. To be noted: competitor of 7.5 nM BR15 quadruplex, 20 nM NTH, 25 mM bis-Tris propane pH 8.3, 100 mM KCl, 15 mM CaCl2, 0.1% (v/v) Triton X-100, 1 mM DTT, 20% (v/v) glycerol, 37 C 20 min, 1% agarose gel in 1x TBE.

What is called IC50 is the midpoint of a concentration-inhibition curve. The low end stands for inhibition by little substance, the high end for a need for much substance. In the case of “metU-tRNA with 5' and 3' single-stranded regions”, the concentration for half-maximal inhibition (IC50) was found to be 147 nM. This counts as sub-micromolar. The substance glnW-metU segment returned a half-inhibitory concentration (IC50) of 229 nM.

As for “glnW-tRNA (no flanking single-stranded regions)”, the half-maximal inhibitory concentration (IC50) (does not compete effectively) is more than 2500 nM.
